Values of other authors as cited in publication doi:10.1101/2022.07.01.498456.

Tests used:
Glu35 = Glu35 (UniProt position 53, CAAKFESNFNT); assay: other; settings: native HEWL, ligand-free (inferred; not explicitly stated)
Asp52 = Asp52 (UniProt position 70, TDGSTDYGILQ); assay: other; settings: native HEWL, ligand-free (inferred; not explicitly stated)

Hen egg-white lysozyme (lysozyme C) (Gallus gallus)
pKa (Glu35): 6.2 | pKa (Asp52): 3.6
